Experimental data: article PMC9943664

Tested on: MBP-DDX3X (human)
Test: EMSA
Details: DDX3X EMSA: 40 mM Tris-Cl pH 8, 50 mM NaCl, 0.5 mM MgCl2, 2 mM DTT, 0.01% NP40, 2 mM AMP-PNP/MgCl2, 37 C 30 min, UV 254 nm 3 min, 6% native PAGE in 0.5x TB + …

## endogenous tRNA-LysUUU/CUU
Native post-transcriptional modifications (not listed)
  Kd: 83.4 nM

## synthetic tRNA-LysUUU
None (unmodified)
  Kd: 431 nM
